In US20210369776A1 (published 2021):

B1: L201 TCR (TCR, V domains shown)
Valpha: DQQVKQNSPSLSVQEGRISILNCDYTNSMFDYFLWYKKYPAEGPTFLISISSIKDKNEDGRFTVFLNKSAKHLSLHIVPSQPGDSAVYFCAAPPPSGNQFYFGTGTSLTVIP
Vbeta: DVKVTQSSRYLVKRTGEKVFLECVQDMDHENMFWYRQDPGLGLRLIYFSYDVKMKEKGDIPEGYSVSREKKERFSLILESASTNQTSMYLCASSTRLAGAQRDTQYFGPGTRLTVL
B2: L202 TCR (TCR, V domains shown)
Valpha: EDVEQSLFLSVREGDSSVINCTYTDSSSTYLYWYKQEPGAGLQLLTYIFSNMDMKQDQRLTVLLNKKDKHLSLRIADTQTGDSAIYFCAESIPSGYNKLIFGAGTRLAVHP
Vbeta: GVAQSPRYKIIEKRQSVAFWCNPISGHATLYWYQQILGQGPKLLIQFQNNGVVDDSQLPKDRFSAERLKGVDSTLKIQPAKLEDSAVYLCASSLGLAGEDTQYFGPGTRLTVL
B3: L203 TCR (TCR, V domains shown)
Valpha: DQQVKQNSPSLSVQEGRISILNCDYTNSMFDYFLWYKKYPAEGPTFLISISSIKDKNEDGRFTVFLNKSAKHLSLHIVPSQPGDSAVYFCAAKLPQAAGNKLTFGGGTRVLVKP
Vbeta: MVIQNPRYQVTQFGKPVTLSCSQTLNHNVMYWYQQKSSQAPKLLFHYYDKDFNNEADTPDNFQSRRPNTSFCFLDIRSPGLGDAAMYLCATSSSIAGDTRNNEQFFGPGTRLTVL

Tests used:
[1] = molecular target: T1, EBV LMP2 (latent membrane protein 2) peptide on HLA-A*02:01 (human); assay: killing
T1 peptide: LLWTLVVLL

[2] = molecular target: T1, EBV LMP2 (latent membrane protein 2) …; assay: cytokine release

Row | Binder | binding result [1] | binding result [2]
1 | B1 | recognises | 
2 | B2 | recognises | 
3 | B3 |  | recognises
